Data as given in the DeepSol protein solubility set.

Experiment: soluble on expression in E. coli; label from the status in PepcDB or PDB records
For “MNTNNALMQRRHNAVPRGVGQIHPIFAERAENCRVWDVEGREYLDFAGGIAVLNTGHLHPGIVSAVEAQLKKLSHTCFQVLAYEPYLALCERMNQKVPGDFAKKTLLVTTGSEAVENAVKIARAATKRSGAIAFSGAYHGRTHYTLSLTGKVHPYSAGMGLMPGHVYRALYPCPLHNISDDDAIASIERIFKNDAAPEDIAAIIIEPVQGEGGFYAASPAFMQRLRALCDQHGIMLIADEVQSGAGRTGTLFAMEQMGVAADITTFAKSIAGGFPLAGVTGRADVMDAIAPGGLGGTYAGNPIACAAALAVLDIFEQENLLQKANTLGKTLRDGLMEIAETHREIGDVRGLGAMIAIELFENGDPGKPNAALTADIVTRAREKGLILLSCGPYYNILRILVPLTIEASQIRQGLEIIAQCFDEAKQA”, the “soluble on expression in E. coli” value was “not soluble”. For “MNTSSSADPKPDASLSSSNSKIKKEEDLEAMKEAIAQLLQGVEELTQDKLNDAKSRKKLEESMEELKSQNLDLKAQLDFQMAHFQSLFEAHEKEIADLKARQYQNNSIAAQTPPPDVRQELRSFPMVKHSRENPELRNVPVLIFSRCMLCETDEHTIHSCPIYNTNSKRYEGFKDKGLCRSCALPANSDGSATCGRNCMFSRRRCTNCWDKGGDKSYVYHLEFTCRWDERRSQRTSPFSTDHSDRSSKHPRISFDECENHHY”, the “soluble on expression in E. coli” value was “not soluble”. For “MNTTEFDGISHAEGLCDKEFIGKAISYLYRYGQIYIGKKIEPYGIGSGQFPFLMRLYREDGINQESLSDYLKIDKGTTARAIQKLVDEGYVFRQRDEKDRRSYRVFLTEKGKKLEPDMKKIASEWGEILFSSFDDRQRREITNSLEIMFENGLKIM”, the “soluble on expression in E. coli” value was “not soluble”. With “MNTVFSNIANAKITEKSLNAVWMDLFKSADEVLMATGYVSNDAVVELHKILELNDHIQKIDLLVGMHYLEGFSHLQYDSLCKLNDFLRHEKRGAVYVSPFVKFHGKMYSFKNYQKINGLIGSANLTCFWDSTERTYETMLHLNGKPAQILQADIQSTIHKLGKNIQEVERPSKFIEHNSHLENCLGVQKIAPEQIRQLFAQTSEYHFSIPAKTEEKSNLNVFFGEGRRDKRGFVKPRPWYEVELIVSKDITSQEGYPVLKSFTVITDDGWQFQCKTSGDYSKNFRSENDLKTLGKWIKGRLESHGCLQNNEKITHETLREYGNDHFELRSTDNPDVWLLSFKGKN” the “soluble on expression in E. coli” value was “not soluble”. In the case of “MNVETIREYCLSKKGVTESFPFDDVSLVMKVLDKMFALIDLEGANSISLKCDPERAIELREHYAGIEGAYHFNKKYWNGVYFDRDVDDKLIKELVDHSYEEVIKKFTKKLRAEYDALP”, the “soluble on expression in E. coli” value is reported as “not soluble”. For “MNVSFSTPVQNSTASRLALIQQAAARSGALPPAGQYRGSKLSPFDVSQMSGVSISMVERAKINGPEFVEELEWLRQQTTSRCFLDAEMWTNEILAHLPDKWCAPNTLNLYNQVSELVLDNTRSPMASPASNSLYAPGEDQMPTVKRNHTSRFAQSLIKNKEFRRAAFFLEKTMNGNKLDHFLHFRCLFLAYYQEHLENDAEGIERKTSFAEERSPFSLLYQRMEDKKLRENEDVWFEYLMGLLEVELGLKDLAEKSFRNVVIREPRIWPAWEALSRLIADIEDADKFVTSAEVKSLWMGDWFMTLVLQRFHQHSMAIQKAEQLVTRGMTGLPMIITKIAACSNARHDHDQAISNFEDVRKADPYRLGDLHLLSDSLYIRNDQKKLSTLAIEVYKVHKFRWETCCIVANYHAIRRDSEHAIKFFQRALRLNPGLAALWVLIGHEFMEMKNNAAACVSYRRAIEIDPADHRGWYGLGQMYDIMKMPAYALFYYQEAQKCKPHDSRLLVALGDIYSKLNRIEDAEKCFTGAYLFGDVEGNALWSLAKLHERYSDDNKAAQAFEVFLVVYELVTSAEEKIIYAIAFLANHFFKIEDFDKASEYATKCLAFETLCQEGNRLFREIAKIQARESRLPVEEAPGPSNASAAGGQEAMDTEEAPQEGGEEEMSEGEDDFSF”, the “soluble on expression in E. coli” value was “not soluble”. For “MNYATTPTAFVESKLNSMPGDALGYLRRLDQRWQALCQGDLPPIAEVAQKVNTNLGEADFDAVICGGTLGILLAASLQIRGWQVVVIERGKLQGRAQEWNISRQELQTFVELELLTSEELETAIASEYNPGRIAFHGGQEFWIKNVLNVGIDPIYLLEKLKQKFLQAGGKLLEHSAFQKAIIHSDGVAISYQHDGENQVERKLTSRLLIDAMGHGSPLVNQARQGEIPDGVCLVVGSCAQGYSDNETGDLIATTTGITNHCQYFWEAFPARDGRTTYLFTYVDVHPERISLEFFFQEYFRLLPEYQKINLDQLQWQRFLSGFFPAYKSSPLHFSWGRVLAVGDSAGSQSPVSFGGFGAMVRHLKRLTNAIGEALAGDYLAAEDLALLQPYQPNIGVTWLFQQTMGVKVGQTADPEQINRLMNAVFAVMDRQGQEVMEPFLQDVIQWSGLTQTLPRVNPLIVLPLLPQIGLPALMEWLGHYANLAGYSLTYPLAKNLLFTNPSFEQKRRLEAWYYGSGYDFHH”, the “soluble on expression in E. coli” value was “not soluble”. In the case of “MNYIGSKYKLIPFIKENIHAVVGDNLSGTIFCDLFAGTGIVGRAFKKAVNKVISNDLEYYSFVLNQNYIGNIQEIPNQEELINEINSVALKKGFIYSYYSLGGSSRQYFSETNAQKIDAMRLKIEELKLSQNIDNCTYYFLLASLLESADKVANTASVYGAFLKRLKKSAQKELILKGADFDLSLNANEVYQQDASELIGKISGDILYLDPPYNARQYGANYHLLNTIAIYTPFAPKGKTGLPSYQKSSFCSRAKILNAFENLIKTARFKYIFLSYNNEGLMSETEIGNILKKYGTYSLMTKTYMRFKADNKRTHKAAHTKECLHILIK”, the “soluble on expression in E. coli” value is reported as “not soluble”. In the case of “MNYNPEEQFRCTIIRGKAKNMLDNLLPAYANIIDDICPCDKASFVKDFNNRLIEILGEETTKKTLDNHRTEIAGKLFGMFYEDDEVIFPSGRTNKYIEDSDQPAFFKDICFKFQFPNGMDKLDKVIEKVGAKIQIRQFPYILQVLLTADNNNIQLSKDDIAYYVLNSLQVLQGKIKPIEVIEKIIEDRSNDITKKVRHPGKETSYSMQHIREQLNYLELANLIRIDGNLVKLNYREAENINYIAQFWGNKPEFNAYKYDFTSEDDKKSFFKDWQQYYSNVNSHKS”, the “soluble on expression in E. coli” value is reported as “soluble”. In the case of “MPANKAKYKIIKQQVKNNILSARYKIGDRLPTESDFMAEFDVSRFTIRRAIDELVNENFVRRVQGNGMYIKDWHKVNKADEDLRTIAVITTHVADYIFPNIINAIDKVISDAGYSLILANTHNDPKRERDNLLRLLKLKPSAWIIEPTQSAVNRENLDLYQQIKKLDVPAVFINSSYPGIGFPCLKTDDRGSLSELTNYLFSIGHRRIMGVFQIDDIQGVERMKGFADAYLGHPYFSDRQTTIMYKSTDDYDEIFTRITNFYKNQTVDKPDAIICYNDQLAIALIDNLKEQGWKIPEDISIIGFDDYNISRYITPTLTTLSHPKSQMGRDAGKMILNLIDNKAVKSITYYPELVLRKSVMPI”, the “soluble on expression in E. coli” value is reported as “not soluble”. In the case of “MPAPDPMRGDPPHPAPPRLRSPLDPTSGDPLHPAPPRLRSPLDPTSGDPLHPAPPRLRSPLDPTSGDPLHPAPPRLRSPLVLLDGASMWFRSFFGVPSSITAPDGRPVNAVRGFIDSMAVVITQQRPNRLAVCLDLDWRPQFRVDLIPSYKAHRVAEPEPNGQPDVEEVPDELTPQVDMIMELLDAFGIAMAGAPGFEADDVLGTLATRERRDPVIVVSGDRDLLQVVADDPVPVRVLYLGRGLAKATLFGPAEVAERYGLPAHRAGAAYAELALLRGDPSDGLPGVPGVGEKTAATLLARHGSLDQIMAAADDRKTTMAKGLRTKLLAASAYIKAADRVVRVATDAPVTLSTPTDRFPLVAADPERTAELATRFGVESSIARLQKALDTLPG”, the “soluble on expression in E. coli” value is reported as “not soluble”. With “MPARRSAARIDFAGSPRPTLGVEWEFALVDSQTRDLSNEATAVIAEIGENPRVHKELLRNTVEIVSGICECTAEAMQDLRDTLGPARQIVRDRGMELFCAGTHPFARWSAQKLTDAPRYAELIKRTQWWGRQMLIWGVHVHVGIRSAHKVMPIMTSLLNYYPHLLALSASSPWWGGEDTGYASNRAMMFQQLPTAGLPFHFQRWAEFEGFVYDQKKTGIIDHMDEIRWDIRPSPHLGTLEVRICDGVSNLRELGALVALTHCLIVDLDRRLDAGETLPTMPPWHVQENKWRAARYGLDAVIILDADSNERLVTDDLADVLTRLEPVAKSLNCADELAAVSDIYRDGASYQRQLRVAQQHDGDLRAVVDALVAELVI” the “soluble on expression in E. coli” value was “soluble”. In the case of “MPCAETFGSEYFLAQGSPVNSTATPPEPLPPFLQPGDRVLLFDGVCKLCNASVRFVIRHDSQRRIKLASVQSPQGQALLAWFGLPTEQFDSVVLIEEGRLSQRSDAFIRLMAQLPAPWRWLRLLRGVPRPLRDWVYDLIARNRYRLFGRLDVCLLPSPDHQGRFLDDPSLEHHHHHH”, the “soluble on expression in E. coli” value is reported as “not soluble”. For “MPDEATKGSATIPPSSSTPFWWREKRSPKVQYHRSAYPRSRSSDADCRQGNEGMNFIAKHFFEYQSFMNIPHKAVHLHKVPASQAGTDPSMGWAPKNMLKAGKHQPAPGARANRVHRDPRPNGTKYGRAGKHEHREWGDRHGELRDEKVACHKDAWTKFLANDDQGARTAFECDFEDRVLATEEETLQEKLCRTSPEAMNLNALYAAANKAVSCGGDVCELLTILTYAPTVQFVTTTVKKAKALPYNNAPFARIMLFEGRRLMEQKQTTVNPSLVHKSSVDGSKPSSSSASTSSNDNPSDVSFSESFLFHVPPTKLDRSHIVIELYDHDDEGGLQKIGHCVIGRLVDGTGNAHWIQMVRQHGLPVCMWHKIGHN”, the “soluble on expression in E. coli” value was “not soluble”. With “MPDSMSEQLRRDMQCEGLLECFHGLKELDKECFRALVEAEEPLTVDELADAVDRERSTAYRAVQRLLQTGFIEKDQINYDQGGYYHVYSPTDPSQIADEMQRMLNDWYAKMGQLIQEFENKYEQSESTAPTVES” the “soluble on expression in E. coli” value was “soluble”. With “MPEIRLRHVVSCSSQDSTHCAENLLKADTYRKWRAAKAGEKTISVVLQLEKEEQIHSVDIGNDGSAFVEVLVGSSAGGAGEQDYEVLLVTSSFMSPSESRSGSNPNRVRMFGPDKLVRAAAEKRWDRVKIVCSQPYSKDSPFGLSFVRFHSPPDKDEAEAPSQKVTVTKLGQFRVKEEDESANHHHHHH” the “soluble on expression in E. coli” value was “soluble”. In the case of “MPELSPLTYGHTDARLILRVGGSMGDVYGQRLLKRDLNGYILNEEGVGLAMENKETYLGSILPKMNMGWSLGFGYKGVNLGMTFTGRFGGIVISETQSVLDAAGVSKVSADVRDAGGVQINQSKVSAQTYYQTIQGTAAYYTYSATNVRLGELSLSYTLPKKWFDNKVGMTVGLVGKNLWMIYCKAPFDPELTTSAASNFYQGFDAYMLPSTRNFGFNVKFQF”, the “soluble on expression in E. coli” value is reported as “not soluble”. With “MPEPRCTAIVNFLNLSHSILISIFSVSVMSNYHHNHNYQHRPRGYERLPGKRLPDRWNIYDNVGRDIDGTRFVPFKTPLDSSFFDGKNMPVELQFGVKTLISLAQQANKQIGLVIDLTNTDRYYKKTEWADHGVKYLKLNCPGHEVNEREDLVQDFINAVKEFVNDKENDGKLIGVHCTHGLNRTGYLICRYMIDVDNYSASDAISMFEYYRGHPMEREHYKKSLYEAERKKKYGKSSGKSSGNSADSTISSEQLHRNNSQ” the “soluble on expression in E. coli” value was “not soluble”. For “MPFSQIGINGIVNLKKMHVKNYRAPQVSVLNFLPPRHIVLGLENLDIGLGSEFTANAVPIVVEGSLVGQITGMTVALTTELLTDVTGKMNAVVRNCSALIGNSHIVLNPTGPMSIFVKTFEPMINDSVRQRIPEMFCSRLQNLIEKNISKLFEFITKIDLEDYFPKASNVEKDVMNM”, the “soluble on expression in E. coli” value was “not soluble”.
